Target: T1, GST-Ppc89(545-687) (S. pombe, UniProt Q10218 545-687)
T1 sequence (looked up): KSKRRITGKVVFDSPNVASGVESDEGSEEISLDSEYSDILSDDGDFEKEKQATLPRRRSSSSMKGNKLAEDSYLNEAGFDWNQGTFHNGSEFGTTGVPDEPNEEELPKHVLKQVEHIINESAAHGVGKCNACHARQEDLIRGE
Assay: pull-down; 10 µg GST-Ppc89 bound to GST beads, blocked with 5% BSA, 10 µg MBP-Sid4 added, 30 min at 4°C in GST-bind buffer (4.3 mM sodium phosphate pH 7.3, 137 mM NaCl, 2.7 mM KCl, 1 mM DTT, 0.1% NP-40); washes up to 300 mM NaCl; SDS-PAGE, Coomassie blue
Conditions: both partners purified

binding result: binds
B1: MBP-Sid4(546-660) (domain or fragment, S. pombe, UniProt O60187 546-660, looked up)
chain: SQPLTSLNMPDSRFNLAKEKQLYYRLGLQHIDQQCSVETANMLKTVLVQLNIPFAIFPSTIGQVRRQLQQGRRLYQWARNIHYLIYEENMRDGLVSKQCLADMLKKIRELKKRSL
notes: Sid4, S. pombe, 660 aa, residues 546-660 (predicted α-helices 7-11); source: Rosetta2(DE3)pLysS bacteria, purified (amylose resin)
